From publication PMC7948962, “Wzb of Vibrio vulnificus represents a new group of low-molecular-weight protein tyrosine phosphatases with a unique insertion in the W-loop” (The Journal of Biological Chemistry, 2021)

Test system: O=[N+]([O-])c1ccc(OP(=O)(O)O)cc1
Experiment: p-nitrophenol release, A405, initial velocity, Michaelis-Menten fit
Type: biochemical, Escherichia coli
Details: 10 mM HEPES pH 7.5, 150 mM NaCl, 20 °C, 200 nM enzyme
Text: p-nitrophenol release, A405, initial velocity, Michaelis-Menten fit on EcWzb

## EcWzb (Escherichia coli K-12)
  Km: 3480 ± 240 µM
  kcat: 2.84 ± 0.1 s⁻¹
  kcat/Km: 820 M⁻¹ s⁻¹

## EcWzb (Escherichia coli K-12; INS39EKSR)
A39_L40insEKSR
  Km: 2530 ± 30 µM
  kcat: 9.34 ± 0.1 s⁻¹
  kcat/Km: 3690 M⁻¹ s⁻¹

## EcWzb (Escherichia coli K-12; INS39AAAA)
A39_L40insAAAA
  Km: 2050 ± 100 µM
  kcat: 6.09 ± 0.09 s⁻¹
  kcat/Km: 2970 M⁻¹ s⁻¹
